# Assay results: the supplement of paper PMC6755084
# B1: F1*; the commonest letter at each place (parent)
# chain: GAGACCGCAACTGAAAAGTTGTTATCACTTGTCGTAAGACACTTTGGATGGGTTGAAGTTCTGCACGTAGAAGCAAAAGGC
# Variants of: B1
# Assay: fraction ligated after 30 min (ligated reads / total reads); higher = more ligase activity
# Details: with F1*sub RNA substrate (template-directed ligation), 42 °C
# Description: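 Chip-synthesised pool of F1* ligase ribozyme variants (all single and double substitutions, single, double and triple deletions in the catalytic core and GAA bulge, plus designed variants) was transcribed with T7 and reacted as a pool with excess substrate F1*sub for 30 min at 42 C in 50 mM EPPS pH 8.5, 25 mM MgCl2. Ligated and unligated bands were separated by PAGE, barcoded by RT and deep sequenced; fraction ligated = ligated reads / total reads per variant, relative activity = FL / FL of wild type (0.826). Sequences are the DNA template of the ribozyme.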
row,Variant,fraction ligated
1,C28G T35G,0.759
2,T23C T49G,0.78
3,T29A C40T,0.857
4,T29A C40A,0.851
5,A36G A48G,0.798
6,A37G C40G,0.829
7,A27C T30G,0.825
8,T35C C42G,0.851
9,T45C G46T,0.263
10,A24C T25G,0.787
11,C33A T43A,0.83
12,G34T C42G,0.841
13,A24G T49A,0.742
14,A27T G38C,0.784
15,C28T T30C,0.805
16,C33G A37C,0.824
17,G38A G46T,0.791
18,A39C G46T,0.776
19,G46C A57G,0.712
20,C28T T43A,0.803
21,T32C A57T,0.775
22,G34C T49G,0.75
23,T30C T35A,0.796
24,T30C T35C,0.824

row,Variant,fraction ligated
1,G34A G50T,0.778
2,T29C G47C,0.264
3,T25G C33T,0.704
4,T29A G46T,0.793
5,G47C A56C,0.0635
6,T29C C42G,0.818
7,G34C A48G,0.753
8,T25A T44C,0.605
9,T25A T44G,0.117
10,A24T G38T,0.745
11,T25A A56G,0.0269
12,G31T G47A,0.246
13,T30C G46T,0.78
14,T30C A37T,0.805
15,A41C A57C,0.767
16,A27G T35C,0.812
17,C26A T44A,0.792
18,C26G T49C,0.0764
19,T30A C40G,0.803
20,T23A T45C,0.222
21,C42G A48C,0.765
22,T23G A56G,0.792
23,T29C T35C,0.801
24,A24T C33A,0.214

row,Variant,fraction ligated
1,T25C G34T,0.786
2,T30A T43C,0.794
3,T49C A57C,0.266
4,C40A T49A,0.517
5,T32A A36G,0.794
6,C40T T49G,0.812
7,T25C T35C,0.771
8,T30C A36C,0.801
9,T35A G50T,0.792
10,T25A A41T,0.587
11,G34A G38T,0.838
12,C33G A39T,0.851
13,C26G G55T,0.0355
14,T29G T44A,0.848
15,T29A G55A,0.84
16,G51A,0.797
17,T23C T45C,0.208
18,C40T G46A,0.809
19,A24T C28G,0.373
20,C33T A36C,0.843
21,T23C A48G,0.696
22,T23A A36G,0.847
23,G38T T44A,0.823
24,C26A A48G,0.123

row,Variant,fraction ligated
1,A41G A57T,0.76
2,G38C G46A,0.791
3,C40T G50A,0.567
4,T29C G50A,0.116
5,C28G G31A,0.799
6,C26G C42G,0.7
7,T44C G46T,0.787
8,A48T G55A,0.515
9,G34T T49C,0.633
10,A48G G50T,0.235
11,T32A C33A,0.811
12,A27T A37T,0.808
13,T23A C28T,0.753
14,T44A A56G,0.777
15,A27G C33G,0.846
16,C40A A56T,0.812
17,G38T G47T,0.139
18,A36G C40T,0.861
19,C28A A39T,0.794
20,T35G C40T,0.851
21,T25G G38C,0.165
22,G31C A37C,0.769
23,C26G T43A,0.783
24,C26G A57G,0.576

row,Variant,fraction ligated
1,C26G T35G,0.784
2,C33T A57G,0.861
3,T45C G47T,0.379
4,A36C A41C,0.782
5,G34C,0.832
6,C40T T43A,0.819
7,T25G T43C,0.409
8,T23C G38T,0.803
9,T43A G47A,0.804
10,A24G C33T,0.832
11,T29A T32G,0.842
12,G31T T32C,0.816
13,T23G C26T,0.82
14,A39G T49A,0.805
15,C33A T35C,0.85
16,A36G A56C,0.773
17,T25C T49G,0.777
18,A24T,0.778
19,T43A A48G,0.807
20,T35C A37C,0.845
21,T43C T44A,0.833
22,G31T A56G,0.679
23,T43C A57C,0.733
24,T43C A57G,0.785

row,Variant,fraction ligated
1,A37G A48T,0.799
2,G31A G46T,0.777
3,C28T A37G,0.8
4,T29A T45A,0.774
5,C26A T29C,0.804
6,T25G C28A,0.348
7,A24C G47A,0.806
8,A41T A57T,0.808
9,G47C G50C,0.0335
10,T30G T43G,0.795
11,C28A G55A,0.793
12,G34C G38C,0.818
13,T35G A37T,0.846
14,T43A A57T,0.833
15,A39T T43A,0.829
16,G47C A48T,0.257
17,A27C G50C,0.0749
18,C40A T43G,0.801
19,T25G G31A,0.0861
20,C40A G46T,0.792
21,A24C T43C,0.231
22,T29A G31T,0.845
23,T32A A56C,0.574
24,A41T G47A,0.783

row,Variant,fraction ligated
1,T29G A57G,0.776
2,T23G T43G,0.821
3,A37C C42G,0.833
4,T29G G50T,0.683
5,G34T C40A,0.802
6,T35C T44A,0.851
7,A39T C40G,0.808
8,T23G A27G,0.788
9,T45C T49C,0.0485
10,G34C G50T,0.733
11,T35A T49A,0.763
12,T30G T35A,0.845
13,T43G A57T,0.799
14,A36G C42A,0.836
15,C26A T43G,0.547
16,G52A,0.827
17,C33T T49A,0.787
18,G46C A56C,0.324
19,A39G T45G,0.389
20,C42A G47C,0.695
21,T35A C42T,0.85
22,A36T C40G,0.824
23,T32G A41G,0.754
